Each block holds one molecule with its values, some of them ahead of it. Where no end group is shown, it is not given here.
Experiments:
PTH1R [1] = molecular target: T1, PTH1R (Homo sapiens, UniProt Q03431); conditions: cited from earlier work
T1 sequence (Q03431 27-593): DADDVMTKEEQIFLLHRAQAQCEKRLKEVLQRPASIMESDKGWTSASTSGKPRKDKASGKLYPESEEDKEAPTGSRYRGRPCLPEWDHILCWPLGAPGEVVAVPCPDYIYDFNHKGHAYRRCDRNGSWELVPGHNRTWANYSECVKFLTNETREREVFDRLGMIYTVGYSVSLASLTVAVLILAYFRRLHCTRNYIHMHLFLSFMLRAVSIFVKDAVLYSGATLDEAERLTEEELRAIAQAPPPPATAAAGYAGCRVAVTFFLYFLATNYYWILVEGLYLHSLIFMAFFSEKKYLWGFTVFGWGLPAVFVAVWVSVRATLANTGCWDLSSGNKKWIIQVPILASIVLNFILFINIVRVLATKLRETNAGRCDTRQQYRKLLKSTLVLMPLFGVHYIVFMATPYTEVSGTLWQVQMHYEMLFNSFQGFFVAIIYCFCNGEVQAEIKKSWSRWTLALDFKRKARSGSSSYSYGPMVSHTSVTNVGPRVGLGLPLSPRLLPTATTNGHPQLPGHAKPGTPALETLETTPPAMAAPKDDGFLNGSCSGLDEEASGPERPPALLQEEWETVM

PTH1R [2] = molecular target: T1, PTH1R; conditions: cited from earlier work; remark: listed apart in the source
PTH1R [3] = molecular target: T1, PTH1R; test: Ligand-stimulated cAMP accumulation in HKrk-B7 cells; type: cell-based; design: expressed in transfected cells; conditions: HKrk-B7 cells
Procedure: (§1) DMEM, Trypsin/EDTA, and penicillin G/streptomycin and horse serum were from Gibco/BRL, Life Technologies, Gaithersburg, Md. LLC-PK, expressing the recombinant human PTH1R (HKrk-B7 cells) and SaOS-2 cells expressing the wild-type PTH1R endogenously were cultured in DMEM supplemented with 10% heat-inactivated fetal bovine serum, 100 U/ml penicillin, 100 μg/ml streptomycin, as previously described (Gardella, T. J., et al., J. Biol. Chem. 271:19888-19893 (1996); Fukayama, S., et al., Endocrinology 134:1851-1858 (1994)); both cell lines were maintained in a humidified atmosphere containing 95% air and 5% CO2. After seeding, medium was replaced daily, until cells were used for radioligand binding or cAMP accumulation assays.
(§2) Na^125I (specific activity: 2,000 Ci/mmol) was purchased from DuPont/NEN, Boston, Mass. Fetal bovine serum, 3-isobutyl-1-methyl-xanthine (IBMX), and BSA were from Sigma, St. Louis, Mo., and trifluoroacetic acid (TFA) was from Pierce, Rockford, Ill. Radiolabeled rPTH(1-34) and PTHrP(1-36) were prepared by the chloramine-T method, followed by HPLC purification using a 30-50% ACN/0.1% TFA gradient over 30 minutes; radioreceptor assays were performed in 24-well plates as previously described (Gardella, T. J., et al., J. Biol. Chem. 271:19888-19893 (1996); Fukayama, S. et al., Endocrinology 134:1851-1858 (1994)). In brief, each well (final volume 500 μl) contained binding buffer (BB; 50 mM Tris-HCl (pH 7.7), 100 mM NaCl, 5 mM KCl, 2 mM CaCl2, 5% heat-inactivated horse serum, and 0.5% heat-inactivated fetal bovine serum), the ^125I-labeled PTH or PTHrP analog (100,000 to 200,000 cpm) was incubated in the absence or presence of increasing concentrations of unlabeled peptides. After 4 h at 16° C., buffer was completely removed, the cells were rinsed with cold BB and lysed with 1 M NaOH. The entire lysate was counted for γ-irradiation. Specific binding was determined after subtracting radioactivity bound in the presence of maximal concentrations of unlabeled competing peptide (10^−6 M). Agonist-dependent stimulation of cAMP accumulation by HKrk-B7 and SaOS-2 cells (48-well plates; stimulation at room temperature for 45 minutes) and the subsequent measurement of cAMP by radioimmunoassay was performed as previously described (Gardella, T. J., et al., J. Biol. Chem. 271:19888-19893 (1996); Bergwitz, C., et al., Endocrinology 139:723-732 (1998)). Data were analyzed and graphically illustrated using the graph-pad prism software package.
The values for EC50 and Vmax (mean±SE) are derived from at least three independent experiments.

human PTH2 receptor = molecular target: T2, human PTH2 receptor (Homo sapiens, UniProt P49190); test: Ligand-stimulated cAMP accumulation in hPR2-20 LLCPK1 cells; type: cell-based
T2 construct: expressed in transfected cells
T2 sequence (P49190 25-550): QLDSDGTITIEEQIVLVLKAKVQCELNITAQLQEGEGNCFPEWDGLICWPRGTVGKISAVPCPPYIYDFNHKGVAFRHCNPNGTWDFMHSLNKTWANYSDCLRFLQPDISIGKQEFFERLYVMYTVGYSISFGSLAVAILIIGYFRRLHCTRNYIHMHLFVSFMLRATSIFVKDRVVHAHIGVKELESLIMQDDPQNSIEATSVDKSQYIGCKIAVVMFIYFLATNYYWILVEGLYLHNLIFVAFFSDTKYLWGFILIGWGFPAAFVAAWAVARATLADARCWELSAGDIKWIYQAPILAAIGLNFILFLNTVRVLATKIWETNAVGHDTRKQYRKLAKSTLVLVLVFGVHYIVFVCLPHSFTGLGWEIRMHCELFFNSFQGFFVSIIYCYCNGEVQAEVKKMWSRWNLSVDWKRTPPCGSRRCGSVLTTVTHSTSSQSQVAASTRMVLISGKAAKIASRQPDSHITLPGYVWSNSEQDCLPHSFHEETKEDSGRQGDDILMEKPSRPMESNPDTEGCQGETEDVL

endogenous PTH1R = molecular target: T3, endogenous PTH1R (Homo sapiens, UniProt Q03431); test: Ligand-stimulated cAMP accumulation in SaOS-2 cells; type: cell-based; conditions: SaOS-2 cells
T3 construct: SaOS-2 cells expressing the wild-type PTH1R endogenously; endogenous in cells; host or cells: SaOS-2 human osteosarcoma cells
T3 sequence (Q03431 27-593): T1 sequence (Q03431 27-593)
Procedure: as §1
as §2, with “After 4 h at 16° C., buffer was completely removed, the cells were rinsed with cold BB and lysed with 1 M NaOH.” left out, “Agonist-dependent stimulation of cAMP accumulation by HKrk-B7 and SaOS-2 cells (48-well plates; stimulation at room temperature for 45 minutes) and the subsequent measurement of cAMP by radioimmunoassay was performed as previously described (Gardella, T. J., et al., J. Biol. Chem. 271:19888-19893 (1996); Bergwitz, C., et al., Endocrinology 139:723-732 (1998)).” left out, “package. […]” for “package.”

PTH1R [4] = molecular target: T1, PTH1R; test: Inhibition of agonist-stimulated cAMP accumulation in SaOS-2 cells; type: cell-based; design: expressed in transfected cells; conditions: SaOS-2 cells (stated for both cell lines); agonists 0.15-0.3 nM
Description: (§3) FIG. 4A-4F. Inhibition of agonist-stimulated cAMP accumulation in HKrk-B7 cells (FIG. 4A-4C) or SaOS-2 cells (FIG. 4D-4F). […] Data are expressed as % of half-maximal cAMP accumulation and represent the results (mean±SE) of at least three independent experiments.
(§4) Na^125I (specific activity: 2,000 Ci/mmol) was purchased from DuPont/NEN, Boston, Mass. Fetal bovine serum, 3-isobutyl-1-methyl-xanthine (IBMX), and BSA were from Sigma, St. Louis, Mo., and trifluoroacetic acid (TFA) was from Pierce, Rockford, Ill. Radiolabeled rPTH(1-34) and PTHrP(1-36) were prepared by the chloramine-T method, followed by HPLC purification using a 30-50% ACN/0.1% TFA gradient over 30 minutes; radioreceptor assays were performed in 24-well plates as previously described (Gardella, T. J., et al., J. Biol. Chem. 271:19888-19893 (1996); Fukayama, S. et al., Endocrinology 134:1851-1858 (1994)). […] The entire lysate was counted for γ-irradiation. Specific binding was determined after subtracting radioactivity bound in the presence of maximal concentrations of unlabeled competing peptide (10^−6 M). […] Data were analyzed and graphically illustrated using the graph-pad prism software package.

[5] = molecular target: T4, human PTH/PTHrP receptor (PTH1R) (human, UniProt Q03431 27-593); test: cell-based or functional assay
T4 sequence (looked up): T1 sequence (Q03431 27-593)

PTH1R [6] = molecular target: T1, PTH1R; conditions: cited from earlier work; remark: listed apart in the source
PTH1R [7] = molecular target: T1, PTH1R; test: Inhibition of agonist-stimulated cAMP accumulation in HKrk-B7 cells; type: cell-based; design: expressed in transfected cells; conditions: agonist PTH(1-34), PTHrP(1-36) or PTHrP(1-20)/TIP(23-39) at 1 nM (about half-maximal)
Description: as §3, §4

[8] = molecular target: T4, human PTH/PTHrP receptor (PTH1R); test: cell-based or functional assay; remark: listed apart in the source
[9] = molecular target: T4, human PTH/PTHrP receptor (PTH1R); test: radioreceptor competition on HKrk-B7 cells; tracer 125I-rat [Nle8,21,Tyr34]PTH(1-34)amide
Procedure: (§5) Na¹²⁵I (specific activity: 2,000 Ci/mmol) was purchased from DuPont/NEN, Boston, Mass. Fetal bovine serum, 3-isobutyl-1-methyl-xanthine (IBMX), and BSA were from Sigma, St. Louis, Mo., and trifluoroacetic acid (TFA) was from Pierce, Rockford, Ill. […] After 4 h at 16° C., buffer was completely removed, the cells were rinsed with cold BB and lysed with 1 M NaOH. The entire lysate was counted for γ-irradiation. Specific binding was determined after subtracting radioactivity bound in the presence of maximal concentrations of unlabeled competing peptide (10⁻⁶ M). Agonist-dependent stimulation of cAMP accumulation by HKrk-B7 and SaOS-2 cells (48-well plates; stimulation at room temperature for 45 minutes) and the subsequent measurement of cAMP by radioimmunoassay was performed as previously described (Gardella, T. J., et al., J. Biol. Chem. 271:19888-19893 (1996); Bergwitz, C., et al., Endocrinology 139:723-732 (1998)). Data were analyzed and graphically illustrated using the graph-pad prism software package.

[10] = molecular target: T4, human PTH/PTHrP receptor (PTH1R); test: radioreceptor competition on HKrk-B7 cells; tracer 125I-[Tyr36]PTHrP(1-36)amide
Procedure: as §5

[11] = molecular target: T4, human PTH/PTHrP receptor (PTH1R); test: radioreceptor competition on HKrk-B7 cells; either tracer
Procedure: (§6) Specific binding was determined after subtracting radioactivity bound in the presence of maximal concentrations of unlabeled competing peptide (10⁻⁶ M). Agonist-dependent stimulation of cAMP accumulation by HKrk-B7 and SaOS-2 cells (48-well plates; stimulation at room temperature for 45 minutes) and the subsequent measurement of cAMP by radioimmunoassay was performed as previously described (Gardella, T. J., et al., J. Biol. Chem. 271:19888-19893 (1996); Bergwitz, C., et al., Endocrinology 139:723-732 (1998)). Data were analyzed and graphically illustrated using the graph-pad prism software package.

[12] = molecular target: T4, human PTH/PTHrP receptor (PTH1R); test: radioreceptor competition on HKrk-B7 cells
Procedure: as §6

Molecule: TIP(7-39): truncated TIP39 of Hoare et al., excluded from the claims (DAAFRERARLLAALERRHWLNSYMHKLLVLDAP; Tuberoinfundibular peptide of 39 residues; UniProt P0C171 68-100, looked up, fragment)
inhibition of radioligand binding to the PTH1R (in words) (PTH1R [1]): efficiently inhibited radioligand binding | agonist activity at the PTH1R (in words) (PTH1R [2]): no agonist activity

Molecule: CSCC[C@H](NC(=O)[C@H](Cc1ccc(O)cc1)NC(=O)[C@H](CO)NC(=O)[C@H](CC(N)=O)NC(=O)[C@H](CC(C)C)NC(=O)[C@H](Cc1c[nH]c2ccccc12)NC(=O)[C@H](Cc1c[nH]cn1)NC(=O)[C@H](CCCNC(=N)N)NC(=O)[C@H](CCCNC(=N)N)NC(=O)[C@H](CCC(=O)O)NC(=O)[C@H](CC(C)C)NC(=O)[C@H](C)NC(=O)[C@H](C)NC(=O)[C@H](CC(C)C)NC(=O)[C@H](CC(C)C)NC(=O)[C@H](CCCNC(=N)N)NC(=O)[C@H](C)NC(=O)[C@H](CCCNC(=N)N)NC(=O)[C@H](CCC(=O)O)NC(=O)[C@H](CCCNC(=N)N)NC(=O)[C@H](Cc1ccccc1)NC(=O)[C@H](C)NC(=O)[C@H](C)NC(=O)[C@H](CC(=O)O)NC(=O)[C@H](CC(=O)O)NC(=O)[C@H](C)NC(=O)[C@H](CC(C)C)NC(=O)[C@H](C)NC(=O)[C@H](CC(C)C)NC(=O)[C@@H](N)CO)C(=O)N[C@@H](Cc1c[nH]cn1)C(=O)N[C@@H](CCCCN)C(=O)N[C@@H](CC(C)C)C(=O)N[C@@H](CC(C)C)C(=O)N[C@H](C(=O)N[C@@H](CC(C)C)C(=O)N[C@@H](CC(=O)O)C(=O)N[C@@H](C)C(=O)N1CCC[C@H]1C(N)=O)C(C)C [TIP(1-39), reference compound]
stimulation of cAMP accumulation at the PTH1R (in words) (PTH1R [3]): failed to stimulate cAMP accumulation | maximum cAMP accumulation (human PTH2 receptor): 136.5±4.9 pmol/well | stimulation of cAMP accumulation (in words) (endogenous PTH1R): failed to stimulate cAMP accumulation | inhibition of agonist actions (in words) (PTH1R [4]): inhibited the actions of the three agonists

IC50 of inhibition of agonist-stimulated cAMP accumulation, HKrk-B7 cells [5]: 100 nM
Molecule: [Leu^11, D-Trp^12, Trp^23, Tyr^36]PTHrP(7-36)amide (from UniProt P12272 43-72) (peptide)

Molecule: PTH(15-34)amide (LNSMERVEWLRKKLQDVHNF; not fully specified (C-terminus); UniProt P01270 46-65, looked up, fragment)
affinity for the PTH1R (in words) (PTH1R [6]): very low (micromolar) affinity

IC50 (PTH1R [7]): ~100 nM
Molecule: CC[C@H](C)[C@H](NC(=O)[C@H](CC(C)C)NC(=O)[C@H](Cc1c[nH]cn1)NC(=O)[C@H](Cc1c[nH]cn1)NC(=O)[C@H](CC(C)C)NC(=O)[C@H](Cc1c[nH]c2ccccc12)NC(=O)[C@H](Cc1ccccc1)NC(=O)[C@H](CCCNC(=N)N)NC(=O)[C@H](CCCNC(=N)N)NC(=O)[C@H](CCCNC(=N)N)NC(=O)[C@H](CC(C)C)NC(=O)[C@H](CC(=O)O)NC(=O)[C@H](CCC(N)=O)NC(=O)[C@@H](NC(=O)[C@H](CO)NC(=O)[C@H](CCCCN)NC(=O)[C@@H](Cc1c[nH]c2ccccc12)NC(=O)[C@H](CC(C)C)NC(=O)[C@H](CC(=O)O)NC(=O)[C@H](Cc1c[nH]cn1)NC(=O)[C@H](CC(C)C)NC(=O)[C@@H](N)CC(C)C)[C@@H](C)CC)C(=O)N[C@@H](C)C(=O)N[C@@H](CCC(=O)O)C(=O)N[C@H](C(=O)N[C@@H](Cc1c[nH]cn1)C(=O)N[C@H](C(=O)N[C@@H](C)C(=O)N[C@@H](CCC(=O)O)C(=O)N[C@@H](Cc1ccc(O)cc1)C(N)=O)[C@@H](C)O)[C@@H](C)CC [PTHrP(7-36), [Leu^11, D-Trp^12, Trp^23, Tyr^36]PTHrP(7-36)amide]

IC50 of inhibition of agonist-stimulated cAMP accumulation, HKrk-B7 cells (agonists PTH(1-34), PTHrP(1-36) or PTHrP(1-20)/TIP(23-39), 1 nM) [8]: 300 nM | IC50 [9]: 39 nM | IC50 [10]: 44 nM | fold improvement in apparent binding affinity relative to TIP(1-39) [11]: ≤ 6 fold | fold higher apparent binding affinity in comparison to the parent peptide TIP(1-39) [12]: ~5.5 fold
Molecule: AFRERARLLAALERRHWLNSYMHKLLVLDAP (not fully specified (C-terminus), also called human TIP-(9-39)) [TIP(9-39)]
